Measured values as given in the domain aggregation screens of Martell et al. (2025).

Test: soluble fraction after stress (log2 fold change); higher = more stays soluble; pooled small domains, quantitative proteomics
Conditions: stress: 50 degC
Summary of the method: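 The measure of aggregation propensity here is the base-two logarithm of the fold change in the soluble amount of each protein after stress. A higher value means more of that protein stays in solution. Stress was applied at 50°C to pooled libraries of small protein domains, read out by high-throughput quantitative proteomics.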

Row | Sequence | soluble fraction (log2)
1 | HMTKVKIDRLFSIVQMLVNRKSVTAKELADYFNVSVRTIYRDIEILSANGIPIYATQGKGGGISILEN | -1.05
2 | HMPRQREVPDVSGWTEQHAKVYLEALGYRVKVIYLEVSSFDKGLVQETSPAKGSKVEEGDTIDLRVSNQE | -0.367
3 | HMKTKHISIAEGMSLYTRDRSPFYWGYLNIEGVIHKKSLKTDVVDEAIKLLSIWKNELLNSITK | -1.28
4 | HMLELLSMEDIQRTRVGDLIATVRQVDRQHALVLDRDPETGKPAVRGIFSLSQISLRLGLNI | -0.557
5 | HMSVTVMVLRAAGDIQAGTEITDKHLATVEVGEYGLPEGIINDKDSILGKIALTDIAKGDYFFSQKLG | -0.134
6 | HMAPSIPSGADIRAAREAAGINLRDFARIVDGPGIAIWSRYETGTPIRVKSISPEVWQKVRDFISQHG | -0.826
7 | HMHIELNDTQKRILNFLSDDPNLSAVRLAEQLGISSRNVEKNIKKLKEYGILIRHGSPKNGYWEIVV | 0.0335
8 | HMGGKWKLRILWHIHHGDTRFSTLKRGIPEISEKILAQQLRELEEHQLIKRRVVTVMPPHVVYEL | -2.28
9 | HMGRPWRIGDVVNVSRPTGDGGGFTKGLITRIYPTTVQVTWNPDLQHARPWTTMEKKQYLIFVYHDDE | -2.86
10 | HMAWAVDVGVVGLFPGKAVLVIDGGAPRTVPVGANVGGVRLLAVDQGSATVEIGGKRQRLAIGQHAH | -0.402
11 | HMRFMRVSQSKSKNSTSLYIIESVYTKDNKHTTRIVKKLGTVEELSKEHEDPLAWAKEVAKQMTEEAEQN | -0.347
12 | HMQEERLTFDTLLGISGIGPRLALAVLSRFTPGSLAAAVDAGDTKAFSAVPGVGNRTASRIILELKGKL | -0.771
13 | HMAVPMTPGELVGSRVRVLWWKDGRGEVVALARGHQATLPARSEEPLRTGADAVVLEADEGTLVVTS | -0.0203
14 | HMRHDSEGYYRLIGVPPDADDAELKEAAKKRLMEAHPDHGGSEDEFVEVYRAYRTLTDPSARAEYDARP | 0.307
15 | HMQFETVQDAFNHYRNASLEEIESRAAEIKGIIESDPEADVRALNIEIEGLHQAKQNILEKQKTK | -0.0753
16 | HMATGGKIYIGMNDNGKVVGVSDADKLLEDIPNKVRDVLGIIVDVNLLEENGLKYIEIDVPPYSN | -0.585
17 | HMETAADLLAAAKENPARFGILASEGRFGLGYMNDDLLDPDNLVAISREEADDLRGLGVYFHNLD | -0.0842
18 | HMKGYIGESKARNIALKKAPGASITKFEFDKDDGIAVYEVELRKGIYEYELKINAVTGAIIEFEKDIE | -1.46
19 | HMDIMNNILINRIKKILTEQNMSKADLSRLTGISNSSLSEYLNGKYEPKQDKIALIAKALHVSPAWLMGF | -0.915
20 | HMEISTENESFSNGLLEHPHYTRPPVWEDLKIPAVLMSGHHGKVAEWRKQQSEALTQERRPDLWEAFG | -0.0409
21 | HMTMKNPNGYGSVINLGKGRRRPWAARVTTGLVYDEKKDKLIQRYKYIGYADTRKEAHQILAEYNAGLPI | -1.43
22 | HMGTGTYQVWSANGLGVRMRSGPGTGYRILAVYSVGTSVTVLQKGAYWSYIRVGSRTGYMMNQFLVSG | 0.139
23 | HMLDFLVSKYESELLADLLWSLGVVAVEEREATGDLVTLRTSLGDDHSFTRELVQEKFPDVIVSTAL | -1.47
24 | HMGDPMAIMQLSSNTTPEYWEAYQKYHIQEYEQSNFIRYVNGISVLDDDFVDKVLITIDQHGRIFSELKS | -2.41
25 | HMGGRSARVRRAVLDAVVELLGEGGVRAVTIAEVAKRSGVNASSIYRRWRSIDALILDAAQDL | -1.81

Row | Sequence | soluble fraction (log2)
26 | HMGLGDLEVVDSIGKIRRDGQQMILAFGRHKGRDVQEVYNEDPRYINWLLSPKGIEDENGRGKVRDYLGIN | 0.163
27 | HMNLLGERIREIRMEMGLTAKELAQRASVTPGYISQIEHDQIKPSMNVMMRIAEVLNVPMAALLM | -0.51
28 | HMDVYKRQKLRNFIESLFEDAPKNKQTIELKEEMLQNLIDKYNDLVDSGKSSEAAYNIATAS | -0.0392
29 | HMSNTGDIIRKLREESGVTAKELAHRIGLSASQMSRLESGKRRINSEVLTRIARALEVAPSQLID | -0.136
30 | HMENYYMPVVAGQSEQDAKSMLNAMKLSLSIQVQEQESDSVAKGLAIGTSPAAGSQIRKGSSVILYISKGA | -0.0609
31 | HMQNNIEFTVLEEDAQKRLDVLLSEKTALSRSASASLIEEGGVLVNGRKEPKKYKPVRGEIITAILPE | -0.0707
32 | HMAKSDLNYLDFKSKLEAGEIAKASVIRNEDTFKVTLQNGEVYNVTSPDYEDFRKELLEAGVDIQVSK | 0.114
33 | HMSKTDYKILYSDLNREDAKQLSLLLEDKKIPYQTSEDGKTIKIPEGMVNRFRMEVATMGVNF | 0.00779
34 | HMDKNNLHSVLQDVPGIGPKRMKELMRAFGSVEGMKKAGLEELAAVKGMNHKAAEALIQFFR | 0.199
35 | HMTLSDDEFEIIKSLIIDTLKEEALTINALTKKINHKEAKTIQVIRFLLDNGLVAENNLMKLFVI | -0.821
36 | HMSGTGSYVALLRDPQGNVGKVVVKGSKGEQVLSQPQQAARLDGATPSYEVTGRQIAEDFGRALAV | 0.127
37 | HMVPDVVGKDYALAQAELEGANLVVAKGSSRYDDTLPAGVVLATDPKVGTVVKPGAKVTVILSK | 0.251
38 | HMTTQVPYTAKLININGGSVVNFRKEPGMNTTIIRTYPVGTEVTVLETGVNWSKVEIDGVTGYVSSYFL | -0.699
39 | HMPEKKKYGDFVSMTEEEYGKLVSEYGQEAAKRMVEILNNYKGATGKPYKSDYLAILNWVVKRIKEE | 0.0441
40 | HMKVKGVYQLDNGYWGYRFTMLVNGKTVSQRRVKDESGNPFKTEKKAEKARLVAMAEEQTKANK | -2.11
41 | HMEETIVFGQQKAINALSSDAGLSSNELDSYLKKRYKRPLYQLSKSEGAELIQGFQDGSLSKASIMDYVS | 0.169
42 | HMHAPLEVGSVVRIEGQKALGTILSISDREAIVALGALKTTIPLKRLHGVSPAEAQRHLRKTTPAQAVR | 0.0521
43 | HMTLNQEELMGKTEAILFAGGEPVSLDRIAQVLGVRTPVIDSIVSALQEKYNTPTSGIQLMRL | -0.143
44 | HMYRLSPSWRIVERDDGFEIYGGDDARFQLDPSPLVSRLAAGDAVTRDGLDPTGAIEFEQLLSAGMIRPEI | -0.124
45 | HMKPRISMITLGVKDLNKSIEFYGGGLGFPRKKTEPEIAIFKLNGSWLSLYNRGLLAEDANVS | -0.0946
46 | HMVTTDPIADMLTRIRNASSQKHKSVDVPASKEKLAIAQILFEEGYIKSFEEIKEENNQGVIRITLKYTEK | -0.0766
47 | HMSKLIDQELINFFKNQIESKSFRYGVSIEDSYEEIKSNQIKFYGEQEDKLKAIDNAFIELKRERAGIR | -0.00405
48 | HMGDKRPIAVGDYVKLEGQDTPGQVLSISGKNATVGFGMLKTTVKLDRLRHTMAKPQTGASAGVR | 0.178
49 | HMRRKDIEFTNTMLEELYRHNSKWYDAVVRAYALEIPQKQIAEEMGIRLEAFQSMLFRAKKWIKTKYEADY | -2.51
50 | HMAEPRVQEVYFEFDGKQVEAGQVVSLIEQAYKNEGHQIGRIKDLKVYINSEEGKAYYVINGDDGEGKYIE | 0.0517

Row | Sequence | soluble fraction (log2)
51 | HMSTLTLTSGTYAVGENIKAGKYTIMGSGSIAISSSGKARVNSNLTADRKDYVLNDDETIKIKGKAQFIPI | 0.11
52 | HMGSKEQELVILNNILERQLQAINLQKSAAGPMVNLRNVHNTLTKLVEAAGLKNVETYFTDPVIGAAQ | 0.0108
53 | HMVTLPLLKRGHTGLPVKALQTLLVLRGMSVDVDGSFGEKTESAVRTFQTAAKILSDGEVGKDTWKALI | -1.43
54 | HMRTRSDVKRAAIIQAAKDAFQEYGVNATSMDKLAEMASVSKRTVYNHFSAKEELVMHIVKE | 0.166
55 | HMRVEEVGYGEFLQMAEERDLAEVQVTDTEIIFSDKDTPPNYYKTGRMDDPFLVDRLYSAGIRDFGE | -0.298
56 | HMSPQIDYFDDEELDVYRQIAPEAYTDEQIEVFRDILYTLRPEEVEEWLISLEKREINLPLILRQEAIELI | 0.369
57 | HMSGEITVPNLIGVEAIQAKTLLIQAGFLIKEFYDLDSTQPAGVVIRQAPEAGTTQTIGKSVTITINKQ | -0.00644
58 | HMATGTVKWFNPNKGFGFIQQDDASKDVFVHSNELNGVYINEGDKVEFDVVETEKGLSAQNIKK | -0.0828
59 | HMAKDSQSADVLQAIFDGSKVLNGLALDQDMRWDLINGLVMSGRLGVEAIEAEAAKLAKLVEELEFR | -0.892
60 | HMSRAAQRLFMSQPPLSRHIRQLEDRLGVTLFVRHTRGLTLTEDGQRVLEMVRPLLDLQDKTYAALSQLT | 0.382
61 | HMLNPVEKLLLLSQLYIGRLKGSFVVKEKHHKSTILGEVRELSPEEITLKTDEGYRLIRVDDILTIQL | -2.18
62 | HMDIVGAINKIESMKQDRYLAMHPYSITHSADGYYRTYLPADDGKRKQIKKKSKSDLEKVVIDYWTKRS | 0.0365
63 | HMDTEVVMINVVGMNIDKAKNSLNHKNILYKISYQDVSEGENNVVLKQSISSNTKIKKGQVVSLVVGKLN | 0.352
64 | HMGSEYILTIIPTPADATVFINGVKKNSASGVNGQILSWEVTKEGYIPQSGTFTINGKNETIEVVLQPQT | 0.00105
65 | HMSTDIPFNIFSQKWNADEIDSIVVENNKIEGKTKDNKKFSTYAPDELLTSLMENHKNPNVIVEFRAP | 0.277
66 | HMDYARYGLSEKEAELIELIAQGMNNKEISAEIYLSEGTVRNYISELLEKLELRDRTQLAVYYYTHR | -2.71
67 | HMAEATATVTASEMVVRSGPSSSYSVLGSLEKGTVVTVLAASDGIAKISYKGNTGYARIVDMELNSA | -0.0414
68 | HMRSWRDQRVDDLLAAVSELGMTMSRAAAGDLLDQRVEYVANQMRVTPATARKYLTEETLAGMAREIVFG | -0.693
69 | HMVRQKYKSNFITVGDKSLTIHDWAQRLNLSQYALRNRYKEFGKEWVEKAIKTILETGDNTHIYK | -0.847
70 | HMKNLHLVPNVVGMSAKEAKNTLKSFNIKYKPIYGSSNKYDENYIFNQNPRKGKTIKEQEVVTIYISRGAD | -1.07
71 | HMTENQKNIDLIKIVSLLVHAAKIDENYTNKEKELIINFINNFSKENKQNIKSSEILEEAEKYEK | 0.0572
72 | HMTMSFSELLRGLRKSRGMSQAELATAVGLSQAQVSQIETGKLLPSPELIEKLAALYGIALGSA | -0.139
73 | HMKIATIELVKEAVKSKLGKFTKRDIMELVPSVGKTTIENMLKQLIGEGYIERHGKGRATFYVK | -0.56
74 | HMSSHSAEAVRHRIKSMIDHEARDGDVLSDDRIVELLNQAGIDIARRTVAKYREALRIPSSVERKRRLKA | 0.0377
75 | HMLSAPMPGTVLEVHVKEGQRVREGQTLVVMEAMKMEHRVQAPRAGVVTKLHYSEGDRVDVGAILVEIG | 0.0919
